Reference: a protein production outcome set (Wang et al. 2014)

Test: label from the status in PepcDB records

Row | Sequence | protein production
1 | MGPLVKEKYEEVEQIPLKKPHIVSLIGGFGYREPIFRKVLTTAALDSGINYTLISGPSLDPSKFKEIPKNVQILRFVGDTFPYIRSSDAVIAPGGHSTMMEALSFGTPILSFPDEGHSEQENNAAVIEEEGYGRMLSYSTPPEVILECIREVLEDKKYRDKVKRLQRLASELDGLEHHHHHH | not failed
2 | MGQELLVRAHEPETADIEIIPVTTVVQVTEQNSTGDAAVALDTVTVVGERYVDDIVATLTTLRVGMAVLLQRESGNQYDDNAISVWTLQHAKLGYIARYQNQPYATLMDQGQRLYGIVTVLDQQKQHLELMLWRTTAVPSPIEALEHHHHHH | failed
3 | MGQFYCLHCDRYFSNVSVRDDHFKTKKHKKRVNMMMGQAPHSQLDADLAGGMGMPDNGPKLMSNLVFTELRKPETEDLPGMGQFNCLLCHRNFSNASVMDYHFKTKKHKKRVKKIERPAPHSQLDADLAGGMGMPDNGPKLMSA | not failed
4 | MGQHEPGAALGRMVRAAWSETLGEDHPDTLAAANRLAGCLVGLRKYAEARDLFADLLPRCERALGWEDPLTLTVVSNLGGCLSALGAHEEARRQCEDIVRRSRLALGPDDPRTLRAASNLAVFLRRLDDHQAALAVWEDTLLRYRRVLGEDHPDTLHAKRDLVALLRAMGEHDRAHAVAGEPLEHHHHHH | failed
5 | MGQVEVIDRRQSVFGDDIQLQKRSSSYEIISNGVFLMSTENGRSEREMVTLGAQHMKNAVHSVLIGGLGVGITADEAVHLNDHVQVHVVEIEPSVVEWQYRYLYPFSNQALEHERTAIIISDIQQWLRTNERTYDLICLDTDNGPDWMVHKQNASLYGKIGLELVRERVRVGGAVSFWSASASESFLHELETLFDRVYEHAVSISHTLPPDYVYVACRDLEHHHHHH | not failed
6 | MGRKRKHSETEAPAPVKKSDEPAPDRPKRTLLGWKDKSEGEAEKAKALTSSGFKNKEKVLVTCSRRISFRYRSLMLNIVSLLPHCKKDSKVEAKSSKGATLNELIELKNSNSCLFFECRKHKDLYMWMVKSPNGPSVKFLVKAVHAMEEMKLTGNHLKGSRPLLTFSSNFDKDAHWKLLKEMLTQVFGIPKEHRKSKPYHDHVFVFSIVDEHIWFRNYQISVPHNESDKIAKGGLDKMTLIEVGPRFCLNPIKIFAGSFGGPTLYENPLYVSPNQIRALEKRNKAGKFAKKIKAKTRKKMHELSNPLEPDEFADMWKDDE | failed
7 | MGRMSEKLGQDIKQSIFKVPPLIQKSDIDPEHCRVSAQLDDNVDDNIPLRVMLLLMDEVFDLKDRNQWLRRNIKNLLQQLIKATYGDTINRKIVDHVDNMTSPEQVSDYVKRFRDSYWPNGILAETPPRRDKNLRMRTRVAAKTTLLGIMPDELKHIIGADTTRKGILRVFEMFQHQPLNRRLVYVFLEGFLETLFPQYKFPELFEKLHSRSPRVLKYSHKLRSLQKR | failed
8 | MGRNQGAYLDPSESILMLMVAFLLVLLNAFFVLSEFALVKVRKTRLEELVKIGNSNAKLALKMSQRLDTYLSATQLGITLSSLALGWVGEPAIAKLLAALFESMDLRENPIFIHSMSVVIAFLSITFLHVVLGEIVPKSLAIAKSEKATLFAARPLHVFWVVFYPVVRLFDVIAHFFLKKMGINPKEHDGTHSEEELKIIVGESLREGIIDSVEGEIIKNAXDFSDTSAKEIMTPRKDMVCLDEENSYEENIDIVLKGHFTRYPYCKGSKDNIIGMVHIRDLLSRSIFTPKMHDFNQIVRKMIIVPESASISQILIKMKKEQIHTALVIDEYGGTAGLLTMEDIIEEIMGEISDEYDLKQEGINKLEEGVFELEGMLDLESVEEALHIEFDKECEQVTLGGYVFSLLERMPMEGDTIVSHGYSFEVLSVDGARIKRLKAVKQDQGENEA | failed
9 | MGRVYLVGAGPGDPELLTLKAYRLLKEAPVVLYDRLVDERVLALAPGEKVYVGKEEGESEKQEEIHRLLLRHARAHPFVVRLKGGDPMVFGRGGEEVLFLLRHGVPVEVVPGVTSLLASGLPLTHRGLAHGFAAVSGVLEGGGYPDLRPFARVPTLVVLMGVGRRVWIAKELLRLGRDPREPTLFVERASTPKERRVHARLEEVAEGKVEVRPPALWILGEVVRVFAEKEAPVDALALGG | not failed
10 | MGSGESKANTAETPEVLDVKLTGPEKVNPGESAAYEAAVSYGDEAVTDADEVEFEVWKEGEKDASQMFKVKQEKGVYRLETTFKEDGVYTVQSHVTAKKQHSMPTLKVQVGDADAASNQSEEEHSHHHLEHHHHHH | not failed
